Results on two substances are retold here after PMC5023729.

The target of test [1] is F380L/F382L double mutant G3BP1 (human) (UniProt Q13283).
The target in test [2] is FLAG-G3BP1 (human, wild type) (human) (UniProt Q13283).

On to A4V mutant SOD1-3xHA (natural protein), for which the percentage of cells with SOD1 inclusions in which G3BP1 co-localizes (EGFP-tagged SOD1 and mCherry-tagged G3BP1 in G3BP1-null 293T cells) came to 36.1% in test [1] and 86.6% in test [2].
In the case of “A4V/W32S double mutant SOD1 (natural protein)”, the percentage of cells with SOD1 inclusions in which G3BP1 co-localizes (EGFP-tagged SOD1 and mCherry-tagged G3BP1 in G3BP1-null 293T cells) in test [1] turned out to be 14.7%; in test [2] it was 49.1%.
